In publication PMC9017650:

How the values were obtained:
[1] = target: human FcγRIIIa receptor, V158 variants (human)
[2] = target: recombinant human TNFα (human) (UniProt P01375); experiment: SPR
[3] = target: Golimumab A (human); experiment: SPR; Biacore T200; anti-human Fc antibody immobilised on a CM5 chip, golimumab captured, TNFα as analyte at five concentrations (7.81–125 nM), 30 μL/min, 25°C, 1:1 Langmuir model, KD = Kd/Ka
[4] = target: Golimumab B (human); experiment: as above

Substance	ADCC reporter gene assay, EC50 (Jurkat NFAT-luciferase cells with FcγRIIIa V158 as effector cells, CHO-K1/hmTNFα as target cells) [1] [µg/mL]	koff [2] [s⁻¹]	also measured
Golimumab A (antibody)	0.15		
Golimumab A (from UniProt P01857)		0.000164	
Golimumab B (antibody)	0.152		
Golimumab B (from UniProt P01857)		0.000149	
recombinant human TNFα (from UniProt P01375 77-233) (ligand)			Kd [3]: 12.4 pM; Kd [4]: 10.6 pM
